PMC10533412 (Nature, 2023)

Molecular target: the molecule itself
Test: SEC-MALS; single protein at 5 mg/ml, Superdex 200, 20 mM HEPES pH 7.5, 150 mM NaCl

B1: BTN2A1 B30.2 domain (domain or fragment, human)
chain: EELRWRRTFLHAVDVVLDPDTAHPDLFLSEDRRSVRRCPFRHLGESVPDNPERFDSQPCVLGRESFASGKHYWEVEVENVIEWTVGVCRDSVERKGEVLLIPQNGFWTLEMHKGQYRAVSSPDRILPLKESLCRVGVFLDYEAGDVSFYNMRDRSHIYTCPRSAFSVPVRPFFRLGCEDSPIFICPALTGANGVTVPEEGLTLHRVGTHQSL
notes: butyrophilin 2A1 (BTN2A1), human, intracellular B30.2 domain with the C-terminal tail; Homodimer by SEC-MALS and in the crystals; source: E. coli BL21 (DE3), purified (Ni-NTA, TEV cleavage, Ni-NTA or DEAE Sepharose)
stoichiometry N: 2
